Results: IntAct's records for PubMed 15522217

B1: Crk-like protein (Homo sapiens), P46109 (parent)
chain: MSSARFDSSDRSAWYMGPVSRQEAQTRLQGQRHGMFLVRDSSTCPGDYVLSVSENSRVSHYIINSLPNRRFKIGDQEFDHLPALLEFYKIHYLDTTTLIEPAPRYPSPPMGSVSAPNLPTAEDNLEYVRTLYDFPGNDAEDLPFKKGEILVIIEKPEEQWWSARNKDGRVGMIPVPYVEKLVRSSPHGKHGNRNSNSYGIPEPAHAYAQPQTTTPLPAVSGSPGAAITPLPSTQNGPVFAKAIQKRVPCAYDKTALALEVGDIVKVTRMNINGQWEGEVNGRKGLFPFTHVKIFDPQNPDENE

Variants of: B1
Settings: with insr_human INSR

| effect of a mutation on the interaction | Variant |
| --- | --- |
| decreasing interaction | H33R;S53P;K72R |

Variants of: B1
Settings: with insr_human INSR
Remark: another data set of the same source

| effect of a mutation on the interaction | Variant |
| --- | --- |
| decreasing interaction | H33R;S53P;K72R |
